Measured values taken from publication PMC11568366, “Phosphorylation of cytochrome c at tyrosine 48 finely regulates its binding to the histone chaperone SET/TAF‐Iβ in the nucleus” (Protein Science : A Publication of the Protein Society, 2024).

Key:
[1] = molecular target: T1, SET/template-activating factor Iβ (SET/TAF-Iβ), recombinant (UniProt Q01105-2 1-277); experiment: ITC; 300 μM reduced Cc injected (17 x 2.91 μL) into 30 μM SET/TAF-Iβ (as homodimer) in the cell, 25°C, 10 mM sodium phosphate pH 7.4; WT fitted with two cooperative binding sites, mutants with independent binding sites; details: both partners purified
T1 construct: SET/TAF-Iβ, the beta isoform of SET; construct in pET28a(+) from González-Arzola et al. 2015; Concentration is expressed as the functional homodimer

[2] = molecular target: T1, SET/template-activating factor Iβ …; experiment: as above; details: both partners purified; remark: listed apart in the source

T1 sequence (Q01105 other isoform, or with tags, fused parts or gaps): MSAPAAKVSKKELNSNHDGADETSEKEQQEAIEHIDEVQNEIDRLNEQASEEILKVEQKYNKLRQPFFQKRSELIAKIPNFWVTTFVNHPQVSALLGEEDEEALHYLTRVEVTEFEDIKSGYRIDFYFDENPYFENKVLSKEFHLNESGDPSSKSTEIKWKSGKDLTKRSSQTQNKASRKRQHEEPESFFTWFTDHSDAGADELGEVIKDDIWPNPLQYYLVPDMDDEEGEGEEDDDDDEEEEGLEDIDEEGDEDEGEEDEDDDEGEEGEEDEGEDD

dH1 (first site) [1] [kcal/mol] | dH2 (second site) [1] [kcal/mol] | stoichiometry N [2] | Kd [1] [µM] | dH [1] [kcal/mol] | stoichiometry N [1] | Binder
1.3 | 6.9 | 2 Cc per SET/TAF-Iβ homodimer | – | – | – | wild-type cytochrome c (reduced) (natural protein, cytochrome c, human; Hemeprotein, kept reduced with sodium ascorbate in ITC and NMR; Construct and expression as in cited earlier work (Moreno-Beltrán et al. 2015; Olteanu et al. 2003); also called WT Cc; Cc) not shown
– | – | – | 22 | -7.5 | 2.2 | Y48D cytochrome c phosphomimetic mutant (reduced) (natural protein, cytochrome c, human; Hemeprotein, reduced in ITC; also called Y48D Cc) not shown
– | – | – | 110 | -19 | 2.3 | Y48E cytochrome c phosphomimetic mutant (reduced) (natural protein, cytochrome c, human; Hemeprotein, reduced in ITC; also called Y48E Cc) not shown
